Source: patent publication US20210355215A1

Biological target: BsAb CD3-BCMA (human)
Assay: 1 mL CH1-XL column, purified BsAb 5 mg/ml load, residence time 4 min, 10% breakthrough

Chain of BsAb CD3-BCMA (human) (heavy, as listed by the source, chain 1 of 3): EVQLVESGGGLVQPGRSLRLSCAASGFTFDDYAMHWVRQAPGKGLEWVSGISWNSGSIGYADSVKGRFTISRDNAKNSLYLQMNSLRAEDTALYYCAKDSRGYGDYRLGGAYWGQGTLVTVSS
Chain of BsAb CD3-BCMA (human) (light, as listed by the source, chain 2 of 3): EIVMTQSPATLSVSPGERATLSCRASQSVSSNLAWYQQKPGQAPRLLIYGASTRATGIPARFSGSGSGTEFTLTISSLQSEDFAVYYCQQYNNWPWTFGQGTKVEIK
Chain of BsAb CD3-BCMA (human) (heavy, as listed by the source, chain 3 of 3): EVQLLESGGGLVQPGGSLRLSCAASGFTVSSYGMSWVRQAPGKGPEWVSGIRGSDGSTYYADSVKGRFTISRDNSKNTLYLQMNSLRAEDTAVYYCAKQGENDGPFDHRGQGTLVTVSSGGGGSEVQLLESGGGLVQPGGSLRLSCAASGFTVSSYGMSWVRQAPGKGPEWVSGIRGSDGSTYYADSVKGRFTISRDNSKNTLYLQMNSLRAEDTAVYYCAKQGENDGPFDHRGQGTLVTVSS

dynamic binding capacity: 9.3 mg/mL
Substance: CaptureSelect CH1-XL affinity resin ligand (13 kDa llama heavy chain antibody fragment, Ig heavy chain CH1-specific nanobody) (VHH)
